The text below walks through data of publication PMC6368601.

This test has as its target taxol-stabilized microtubules polymerized from bovine brain tubulin dimers (bovine) (UniProt Q6B856). Kind of test: co-sedimentation; 100 nM ISB (WT, MTBM or Δ20) with various concentrations of taxol-stabilized microtubules; BRB80, 1 mM DTT, 50 mM NaCl, 20 uM paclitaxel; 15 min at room temperature; 50% glycerol cushion, 279,000 x g; blot with anti-Borealin; apparent Kd from a one-site specific binding fit of three experiments.

For “INCENP^1-58-Survivin-Borealin complex (ISB^WT), centromere-targeting region of human CPC (from UniProt Q9NQS7 1-58; O15392 1-142; Q53HL2 1-280)”, the Kd worked out at 0.164 µM.

Regarding “ISB^Δ20: INCENP^1-58-Survivin-Borealin lacking the N-terminal 20 amino acids of Borealin (from UniProt Q9NQS7 1-58; O15392 1-142; Q53HL2 21-280) (complex)”, the Kd was 0.75 µM.
